Measured values reported in the domain aggregation screens of Martell et al. (2025).

Test: soluble fraction after stress (log2 fold change); higher = more stays soluble; pooled small domains, quantitative proteomics
Settings: stress: 50 degC
Outline: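 Quantitative proteomics served as the high-throughput read-out for pooled custom libraries of small protein domains. Each was stressed at 50°C. Aggregation propensity is expressed as the base-two log fold change in soluble protein after stress. A higher value means a larger share of the protein remains in solution.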

Sequence	soluble fraction (log2)
HMDTITDSYTLEKGKLRAKVMEYELPESKKKEYSATFEYRGVYYHMIGIIEKADFEEILKNLHFP	-0.165
HMDRADIDAVDAEWVRATMERLGLRAKHIESHTGISKSTLSILLNGHRPLTRWHKIAFYYLFKHIEF	-2.68
HMKEKLGEFENVFLSVDELQKLKSKLGAETESYIERLSNYIASSGKKYKSHYATILSWTQKDTK	-0.462
HMLFKGDTREENVILEFLSKNGTTSSDAIIKQTGLSASEFNQAITMLELKGLALNNGGEKWSL	-0.0779
HMIDDPTAVILRLVSEKQVIRRDDVVKALSVTPQKAYRLLKTMTTGGLLTRSGARRTTVYGLPDARER	-0.0945
HMGNPSGLPLPRFASTRSEPINVRVGPGQKYDIAWTYLKSGIPVEIIQEFDTWRKIRDFDGAEGWIHQNLL	-0.937
HMNEMSDTITRLLDAAETGIRLRGYHAVSFRDLAEELGIKSSSVHYYFRQKEDLGLAVVERY	0.0289
HMKEEVEILGGKATIYTNDYGVWQFRLWLTTDNKYVRKSLRTKVKDYAITEGEKLYIQIRSDIEKGIKYY	-1.13
HMGGGRELGLDPETGKKISVRLGKFGPFVQLGESGEEDKPVFANLGKNQSIATLSLEEAIALLARPK	0.246
HMPPENVSVRREQIAEDKKTVYNVWVTKGNKTVLYSKVVYAWGGVYFFRDLNTSISENMYKQADAGLVN	0.0555
HMNTIFSVNGPVVKVKDTKDFSMMEMVYVGEKKLIGEVIGITESFTTIQVYEVTTGLKVGEPVYTTGAPM	-0.38
HMERLSNQVYAILKEMIADYRFNPGARINVEQIAKEVGASRTPVWEAVHRLVQEGLLENIPNRGVFML	-1.41
HMTELSLSEQAYQQLRRMIVRLDFAPGDVLREEALQEALGMSRTPIREALQRLAREHFVTVIPRRGMFVS	-2.28
HMDDNRSLSDLAQQVFKRENIQVSRDTLSLLVSRLGSDRAVSRQEIEKLALFAGSNGKLTEEDIHNALG	0.192
HMEQVQQIPIEELFPFKEHPFKVLDDEAMQRTVESVAQYGVLAPLIARPRPEGGYEIISGHRRQHAAELYR	-0.0852
HMTRNGTVTFFNHDKGYGFIKDVLTQESVFVHINSLSEPINEQNKVSFEIEMGPRGSNAINVKLI	-1.97
HMRALPFSFANRHGVLIREISDGVAHAVYRIGSSPLGLAEARRFVGMPLMLTPVAREAFDSLLQQTYEQG	-1.6
HMRIDSFEDARRRFEYDYLTRLLKLTQGSVTQAAKLAKRNRTEFYKLLQRHGIEAAHFKPTS	-0.581
HMVDDELTARRRVNLRRIADELGGAAAVARKTQKSVQQISSMLNGTKSFGSKIARDIEPKLGLPLQSLDKE	0.128
HMKRLQEQAYDYLKELILSGKMIENEIYSETKLASEIGISRTPIRDALQRLSQDGFIDIIPSKGFRIH	-0.134
HMQDVVFTVDKDQTGAEIGDMLYEKGIISSPTTFRLALRLTGSMDKLQQGYYQIPQNASLRQVIALLQKG	-0.393
HMSSTSTMTVAEATIGRKVKHDKFGEGTIITVADVNGDKKLTIAFNQQGVKMLMLSMAKLEL	-1.03
HMPEGTYLEKLAIENNNLQLIGLSREASQLVQLLQDAPQWRKVNLTGVLQADGAASGRDRFTMTAELQ	0.0683
HMNETHANKVYNFLKKKKKPLSAYEILKELASEGISAPTTIYRALNKLVSNGLIHKIESLNAWTV	0.318
HMLDSPHDDLNRKIVQMLQNDGRLPYKDIAEVLSVSEGTVRNRVQRMRDAGMLNIVALIDPMAI	0.158

Sequence	soluble fraction (log2)
HMKIQTYEDFRNAYPDIQGSLFGSAERYKTDLDWGDVAAKYDADEELKNVRNIFQLVRRYEQKYS	0.332
HMQADPYTVLGVLRDVTDGELKREYRKLVREHHPDALIAQGVPQEFVDIANNKLAVINAAYERIAKQRGL	0.00775
HMTGIKISVDRLQIGNYVKLPLNWKDHPFLFSSFAIKSQEEIDLIRRLGLKQVIMFPDKSSMPPKPV	-1.33
HMQKITPDNWTYIRSLIRQKWSPDQIDQWLKKHPDVGFTVSRETIYQYVKEDRQKDGDLYLSLRRAGKSY	-1.71
HMDSVEMFSPILGMNANMDLDTLTQTRDKLLEKYKDDEQLIGLVNKTYDYFNEILLKQFLIEELEKNE	-0.153
HMKNSIKLDNFVGMSYDEVISNKEYDFNFVSAFEKTSDYEAGTIIGQTPAAEERVMVGTTVTLTVAQP	0.0342
HMKQQAYEQGKAAYQSGDWLRAVTQLGQVKEAGEKNGEVDHLLGNAYMKLGQFESAAYAYNSALEDVA	0.269
HMLEEIDYPEEQLQLLFAWSRDHVQSTPPGLPVVDDHVWHILVRGYGATDQRTEAFALLASYAGFP	-0.0919
HMPKSKTPDDAAEEFRTAFSALDMDGKVTVKDMAEYMGVIDKTVYARLKKMGDEFTLDKGVITKKT	-0.0532
HMISKQQRQALILDIIQKQSITSQEALLTELQRHHVMTTQTTVSRDIRALGIVRIKDVNGELSYQQLQ	-2.5
HMVPLGDLSKNERRAMELAATNGNVTTRALADDAQVTKRTASTTLRRLAKRGLLEWIGKGPSDPGQFYRIP	-0.123
HMTATDRQLQLIAYTAARLMAEQGIADFNAAKRKAIQTLGLPNNAKLPGNADVEAQLRAYQRIF	-0.133
HMEVEIPSREALLGLVQKHLKPVSFDEFVSHFKLGDERQQVGIKRRLRAMERDGQLVYTKANSYGLPDRM	0.194
HMTFENMFIENSGETLDREFLVENLRGISWQSYDRSVDVLVSRLRGKLGETPNNTRFIKTIHGVGYKFIGE	-0.316
HMTPQDYEYLRKLLKDQSGLDLSVDKQYLLESRLVPLSRKAGLAGIPELVQKMKAGSASLTAQVVEAMTT	0.00429
HMPGRKTTFEERLSIIEDLIKHDVNYSWAVDKYHVSYQQVYGWYQKYRKSGNDPQSLRDRRGK	-2.7
HMSEKELTDLIERIKERRLKLEMSYQDLSDATGISKSTLQRYETGYIKKVPINQIEILAKALHTTPSYLMG	-0.238
HMPNIQLARNLKYLRLAYGLTQDDLGAFLNISRQAYSNYENLKRSPDLDSLIRLASLYHLSLDDLVSR	-3.09
HMNSTGVYQRPDGFWEYRFTLSINGKKLPRRKSTDLMGNKLKTKREAIKAREEAIIALRTEKTI	-0.994
HMTSLGLEGLVNTTAIATSDLRPSGWALAGERKIFVVSEGEFIDNGDKIRILTVDGNRIVVRKETNK	-0.051
HMVQDSEWWRNYQSAHDYFIQNGHLNVLRSDKKNTKLYNWIVGQRSSRWNSQGRINLLNSIGFIWDT	-3.08
HMKQPNFTVIETKILELLFQKDLSSREMQEILKISKDNLIFALQNLLEQEKIVLQTSNTYTVN	-1.15
HMLKFPIGTHVGKKKPSANLSLPNKHGVVIGHGERRNAKGAIMRFYIVETTHSSRPEEWAPGITYPL	-2.5
HMENLFPDYTMQDYRIVRSELSSKFKVQTVPVTTATATENKIVRQEPEAGSRITEGMTVILYYSIGPE	-0.0582
HMTVDAVALGRRVRHLRKQAGLTLDQLAERTGVSGSHLSLVENARREPRLSLVQRIAEVLGVPVEDL	-1.17

Sequence	soluble fraction (log2)
HMNERTKIPLRKIEIGQAVYVDTLEKVGTVIDIQGKQFKVDLAGLPITVAARNLFYPLPQEAKP	-0.106
HMEVPFRNAAIFKTRSGDYAIRASYDGVDLGIKPIEKSTARTYFQLTDVKDKESFLNMTARNQYESEIAGI	-0.00166
HMNVNVSFTQLRHKAEHAIQAKNWSEARNLLTLATLMRPTHRNVARRLKAVEQRNRLFRRLLLILTHRKV	-0.295
HMGSNENTIREYFDSLIASASKREIMDANPTMSQRTVERILQKLQAEGYVEKIGAARSTRYRRA	-0.178
HMGLWWTEAERELVKTTIEQLYKDTNIAEPVDSKNLRASIPALKAMRTGLSAENQARVDTLLGALQV	-0.157
HMDHFLRRFQVEGLNLEKLLRLAAEREMDLLQVRRSGRRMTGLVAEKRLPELEELAAQGGWALRLGEY	-0.268
HMANYYEILGVKHDATEAEIKAAYKQAAKSAHPDAGGSNEKMQEVNAAWEVLGNAQKRAEYDARMA	0.0756
HMYNIDSFMTKNYPTMERFTLSDVQKKYKTTFGLFVKQDELASMIEKTGRFNITSSKNVKYVNR	-1.77
HMKPSKTVYTTANLNLRNGASMSAAVYTSVSRGTALATTGRTTSGWTQITHRGRTLWASSKYLTTTTPP	-2.68
HMEHIVNELDRKVIDYLQSHYDAKLNDIAQGIGVSKATATKSIRKLVQTGIVHVVGSSGTGTSYNLTE	-0.152
HMASIATLTVKALGGASDVVIRDKDGRIIWADRLPAGQSHRVFGHAPFNVAASHASRVQLSLLGKDVGRV	-0.719
HMGVGIEALAVEVDRIRQVLTGGGALSDIQLFSQLKALGEVKTALSSMTDPRARELEKRVAQLLEASLRT	-0.0594
HMESYDSEIKEVLDLAGKGRWEEAQTKADALREMAPNNSLVERLHGWVLQAAHQRREQALENDIRE	0.286
HMAPLADQIVDLLKEHDGFLPLHDNSSPEDIRATVGTSKKAFKQAIGGLFREKRIVIGPTGIRLIS	-0.378
HMTSLAGIERFLASGAIAGVGEAMAHRLVQKFGKETLEIIEKKPSRLTEVAGVGKKTAAKIHASYMEK	-0.106
HMGDLKSLIQATMDDAGISIKPDAMDYLISHLGSDRLTTRAELDKLILYAGADDKLDLDSVVELVG	-0.0746
HMYSFPHQLLKLRTEKQLSQAELATRLFVSRQAVSKWENGDAEPSIDKLILLAKVFNVSLDRLILGT	-1.43
HMGTIEEYSKYLINQYFDSLKKPMDAMTTSEKIEIVKSLDKKGIFNLKGSVGELAKRFNTSEKTIYRYLSS	0.0367
HMLNENNHGEWSIRMSNGLVVRLGRDELNRSLRRSIMAYAGLAPNYRSSIEYIDARYLGGVALKTF	-0.091
HMSNEITVPDLSGMSLEELETILSDRSLSYEIIDSIYNSTAKKGTVSSQDPLPDAKVKSGRTIYITVVSKL	-1.5
HMFNPEQDPKQLTGRERAVADLIGLGANNAEIAIRLSMSERTVKAHLTSIFQQLNVRDRVQLALVMNQL	-0.585
HMSLSDDIAQTLRQLGFDRDVSETLANDVLPAMPTRQDVIDLLGTLGIEKHVAADFANFVVLN	-0.723
HMKIAPRTAENQQLRKMILEIYTTSKKRVGPAKVRRMLLRDYGISISIGRVYRLMSTMNLPKMS	-0.258
HMGGKWKLRILLALENSAQDALRYGEIKNIVSGITDMMLSQSLRELTADGLIERRQYQEIPPKVEYRLS	-2.51
HMAADLIGLEARVTLPLTEDQRGFIETSVRGSLVRRAALSASGRLDRGQRVVILRSEGTTLIVDAL	-0.844
